35 variants from the Human Domainome abundance scans (Beltran et al. 2025) can be followed below.

Sequences and labels used below:
B1: POU domain, class 3, transcription factor 2, residues 262 to 338; numbered along this chain, P20265 (parent)
chain: EDTPTSDDLEQFAKQFKQRRIKLGFTQADVGLALGTLYGNVFSQTTICRFEALQLSFKNMCKLKPLLNKWLEEADSS

± gives the uncertainty stated by the source.

In this data set the parent is B1. Nature of the data set: abundance fitness (aPCA) (normalised: wild type 0, dead -1); higher = more abundant; growth selection in yeast, the domain comes from the species named. The settings on record: Homo sapiens.
As for EDTPTSDDLEQFAKQFKQRRIKLGFTQADVGLALGTLYGNVFSQTTICRFEALQLSFKNMCALKPLLNKWLEEADSS [K62A], the abundance fitness is -0.033 ± 0.032.

Turning to EDTPTSDDLEQFAKQFKQRRIKLGFTQADVGLALGTLYGNVFSQTTICRFEALQLSFKNMQKLKPLLNKWLEEADSS [C61Q], the abundance fitness was -0.112 ± 0.048.

Take EDTPTSDDLEQFAKQFKQRRIKLGFTQADVGLALGTLYGNVFSQTTICRFEALQLSFKNMNKLKPLLNKWLEEADSS [C61N]: the abundance fitness is -0.107 ± 0.075.

As to EDTPTSDDLEQFAKQFKQRRIKLGFTQADVGLALGTLYGNVFSQTTICRFEALQLSFKNMTKLKPLLNKWLEEADSS [C61T], the abundance fitness was -0.182 ± 0.045.

Take EDTPTSDDLEQFAKQFKQRRIKLGFTQADVGLALGTLYGNVFSQTTICRFEALQLSFKNMWKLKPLLNKWLEEADSS [C61W]: the abundance fitness was -0.158 ± 0.03.

On to EDTPTSDDLEQFAKQFKQRRIKLGFTQADVGLALGTLYGNVFSQTTICRFEALQLSFKNMEKLKPLLNKWLEEADSS [C61E], for which the abundance fitness is -0.147 ± 0.037.

Turning to EDTPTSDDLEQFAKQFKQRRIKLGFTQADVGLALGTLYGNVFSQTTICRFEALQLSFKNMGKLKPLLNKWLEEADSS [C61G], the abundance fitness is -0.278 ± 0.027.

In the case of EDTPTSDDLEQFAKQFKQRRIKLGFTQADVGLALGTLYGNVFSQTTICRFEALQLSFKNMDKLKPLLNKWLEEADSS [C61D], the abundance fitness is -0.291 ± 0.075.

Take EDTPTSDDLEQFAKQFKQRRIKLGFTQADVGLALGTLYGNVFSQTTICRFEALQLSFKNMPKLKPLLNKWLEEADSS [C61P]: the abundance fitness is -0.779 ± 0.086.

In the case of EDTPTSDDLEQFAKQFKQRRIKLGFTQADVGLALGTLYGNVFSQTTICRFEALQLSFKNMAKLKPLLNKWLEEADSS [C61A], the abundance fitness was -0.101 ± 0.031.

EDTPTSDDLEQFAKQFKQRRIKLGFTQADVGLALGTLYGNVFSQTTICRFEALQLSFKNMYKLKPLLNKWLEEADSS [C61Y]: the abundance fitness was -0.252 ± 0.077.

On to EDTPTSDDLEQFAKQFKQRRIKLGFTQADVGLALGTLYGNVFSQTTICRFEALQLSFKNMRKLKPLLNKWLEEADSS [C61R], for which the abundance fitness was -0.025 ± 0.028.

With EDTPTSDDLEQFAKQFKQRRIKLGFTQADVGLALGTLYGNVFSQTTICRFEALQLSFKNMLKLKPLLNKWLEEADSS [C61L], the abundance fitness is -0.001 ± 0.029.

On to EDTPTSDDLEQFAKQFKQRRIKLGFTQADVGLALGTLYGNVFSQTTICRFEALQLSFKNMVKLKPLLNKWLEEADSS [C61V], for which the abundance fitness is -0.035 ± 0.03.

For EDTPTSDDLEQFAKQFKQRRIKLGFTQADVGLALGTLYGNVFSQTTICRFEALQLSFKNMMKLKPLLNKWLEEADSS [C61M], the abundance fitness is -0.088 ± 0.037.

Take EDTPTSDDLEQFAKQFKQRRIKLGFTQADVGLALGTLYGNVFSQTTICRFEALQLSFKNMFKLKPLLNKWLEEADSS [C61F]: the abundance fitness is -0.274 ± 0.053.

In the case of EDTPTSDDLEQFAKQFKQRRIKLGFTQADVGLALGTLYGNVFSQTTICRFEALQLSFKNMSKLKPLLNKWLEEADSS [C61S], the abundance fitness was -0.165 ± 0.034.

On to EDTPTSDDLEQFAKQFKQRRIKLGFTQADVGLALGTLYGNVFSQTTICRFEALQLSFKNMKKLKPLLNKWLEEADSS [C61K], for which the abundance fitness was -0.056 ± 0.053.

With EDTPTSDDLEQFAKQFKQRRIKLGFTQADVGLALGTLYGNVFSQTTICRFEALQLSFKSMCKLKPLLNKWLEEADSS [N59S], the abundance fitness is -0.001 ± 0.039.

EDTPTSDDLEQFAKQFKQRRIKLGFTQADVGLALGTLYGNVFSQTTICRFEALQLSFKCMCKLKPLLNKWLEEADSS [N59C]: the abundance fitness was -0.042 ± 0.056.

Take EDTPTSDDLEQFAKQFKQRRIKLGFTQADVGLALGTLYGNVFSQTTICRFEALQLSFKIMCKLKPLLNKWLEEADSS [N59I]: the abundance fitness was determined as 0.092 ± 0.079.

As to EDTPTSDDLEQFAKQFKQRRIKLGFTQADVGLALGTLYGNVFSQTTICRFEALQLSFKRMCKLKPLLNKWLEEADSS [N59R], the abundance fitness came to 0.059 ± 0.029.

Consider EDTPTSDDLEQFAKQFKQRRIKLGFTQADVGLALGTLYGNVFSQTTICRFEALQLSFKPMCKLKPLLNKWLEEADSS [N59P], for which the abundance fitness is -0.559 ± 0.092.

In the case of EDTPTSDDLEQFAKQFKQRRIKLGFTQADVGLALGTLYGNVFSQTTICRFEALQLSFKGMCKLKPLLNKWLEEADSS [N59G], the abundance fitness is -0.13 ± 0.029.

Turning to EDTPTSDDLEQFAKQFKQRRIKLGFTQADVGLALGTLYGNVFSQTTICRFEALQLSFKHMCKLKPLLNKWLEEADSS [N59H], the abundance fitness was 0.017 ± 0.065.

On to EDTPTSDDLEQFAKQFKQRRIKLGFTQADVGLALGTLYGNVFSQTTICRFEALQLSFKLMCKLKPLLNKWLEEADSS [N59L], for which the abundance fitness came to 0.029 ± 0.042.

As to EDTPTSDDLEQFAKQFKQRRIKLGFTQADVGLALGTLYGNVFSQTTICRFEALQLSFKDMCKLKPLLNKWLEEADSS [N59D], the abundance fitness worked out at 0.105 ± 0.06.

Turning to EDTPTSDDLEQFAKQFKQRRIKLGFTQADVGLALGTLYGNVFSQTTICRFEALQLSFKFMCKLKPLLNKWLEEADSS [N59F], the abundance fitness is -0.014 ± 0.086.

In the case of EDTPTSDDLEQFAKQFKQRRIKLGFTQADVGLALGTLYGNVFSQTTICRFEALQLSFKYMCKLKPLLNKWLEEADSS [N59Y], the abundance fitness is -0.103 ± 0.068.

In the case of EDTPTSDDLEQFAKQFKQRRIKLGFTQADVGLALGTLYGNVFSQTTICRFEALQLSFKQMCKLKPLLNKWLEEADSS [N59Q], the abundance fitness was -0.001 ± 0.044.

For EDTPTSDDLEQFAKQFKQRRIKLGFTQADVGLALGTLYGNVFSQTTICRFEALQLSFKTMCKLKPLLNKWLEEADSS [N59T], the abundance fitness is -0.051 ± 0.043.

Regarding EDTPTSDDLEQFAKQFKQRRIKLGFTQADVGLALGTLYGNVFSQTTICRFEALQLSFKWMCKLKPLLNKWLEEADSS [N59W], the abundance fitness was -0.074 ± 0.04.

As for EDTPTSDDLEQFAKQFKQRRIKLGFTQADVGLALGTLYGNVFSQTTICRFEALQLSFKMMCKLKPLLNKWLEEADSS [N59M], the abundance fitness stood at 0.049 ± 0.045.

Consider EDTPTSDDLEQFAKQFKQRRIKLGFTQADVGLALGTLYGNVFSQTTICRFEALQLSFKAMCKLKPLLNKWLEEADSS [N59A], for which the abundance fitness was 0.007 ± 0.037.

As for EDTPTSDDLEQFAKQFKQRRIKLGFTQADVGLALGTLYGNVFSQTTICRFEALQLSFKKMCKLKPLLNKWLEEADSS [N59K], the abundance fitness is -0.022 ± 0.039.
